Experimental data published in PMC11841055, “Structural characterization of pyruvic oxime dioxygenase, a key enzyme in heterotrophic nitrification” (Journal of Bacteriology, 2025).

Assays:
[1] = system: T1, CC(=NO)C(=O)O; assay: nitrite production, diazo-coupling spectrophotometry; assay type: biochemical, Alcaligenes faecalis; details: 20 mM Tris-HCl pH 8.0, 1.0 mM sodium ascorbate, 100 µM FeSO4, O2 as co-substrate
T1 construct: full length, 261 residues (Met1-Arg261); recombinant in E. coli; variants with C-terminal His6-tag, WT by two untagged chromatographic steps; homotetramer, Fe(II)-dependent
Source text: (§1) nitrite production, diazo-coupling spectrophotometry on AfPOD

[2] = substrate: CC(=NO)C(=O)O; assay: as above; assay type: biochemical, Alcaligenes faecalis; details: 20 mM Tris-HCl pH 8.0, 1.0 mM sodium ascorbate, 100 µM FeSO4, O2 as co-substrate
Source text: as §1

## AfPOD (Alcaligenes faecalis; E164A)
[1]
  Km: 943 ± 240 µM
  kcat: 0.27 ± 0.02 s⁻¹
  kcat/Km: 290 M⁻¹ s⁻¹

## AfPOD (Alcaligenes faecalis; E229K)
[1]
  Km: 2150 ± 172 µM
  kcat: 4.58 ± 0.098 s⁻¹
  kcat/Km: 2100 M⁻¹ s⁻¹

## AfPOD (Alcaligenes faecalis; E229K/K8E)
[1]
  Km: 2538 ± 568 µM
  kcat: 1.76 ± 0.109 s⁻¹
  kcat/Km: 690 M⁻¹ s⁻¹

## AfPOD (Alcaligenes faecalis; F69A)
[1]
  Km: 41509 ± 9984 µM
  kcat: 0.246 ± 0.018 s⁻¹
  kcat/Km: 5.9 M⁻¹ s⁻¹

## AfPOD (Alcaligenes faecalis; F103A)
[1]
  Km: 89 ± 22 µM
  kcat: 0.008 ± 0.001 s⁻¹
  kcat/Km: 90 M⁻¹ s⁻¹

## AfPOD (Alcaligenes faecalis; H104A)
[1]
  Km: 170 ± 37 µM
  kcat: 0.21 ± 0.013 s⁻¹
  kcat/Km: 1200 M⁻¹ s⁻¹

## AfPOD (Alcaligenes faecalis; K8E)
[1]
  Km: 68766 ± 20299 µM
  kcat: 0.632 ± 0.066 s⁻¹
  kcat/Km: 9.2 M⁻¹ s⁻¹

## AfPOD (Alcaligenes faecalis; Q53A)
[1]
  Km: 96 ± 18 µM
  kcat: 0.162 ± 0.008 s⁻¹
  kcat/Km: 1700 M⁻¹ s⁻¹

## AfPOD (Alcaligenes faecalis; Y233A)
[1]
  Km: 42247 ± 16705 µM
  kcat: 0.012 ± 0.001 s⁻¹
  kcat/Km: 0.3 M⁻¹ s⁻¹

B1: AfPOD (Alcaligenes faecalis) (protein)
chain: MDTPLRDKSYFDERATKEMATHLQQVQRDTRETMAFACRILAMTEQEAGLAGQISVRSERPGAYWTLRFGLGFDEATPEDFIEVDRDLNTLSGEGMANPATRFHLWVYEARPDVNSIIHTHSPWATVLATARQPLVISQMDMTPLHNDCAFLGEWPGVPIADQEGVIISKALGDKRAIILAHHGYLTAGKSCQEATYLSVYLERAARLQVRAQAAFGPLTPVDDTLAAEAHDYLLKPSIVNATFDYWSRQTQGIAPLTKTR
[2]
  Km: 622 ± 83 µM
  kcat: 4.8 ± 0.169 s⁻¹
  kcat/Km: 7700 M⁻¹ s⁻¹
